Numbering of substitutions follows the chain as printed.

The target in experiment [1] is T1, hGH receptor on hGHR/Luc/HEK293F cells (human, UniProt P10912 19-638).
T1 sequence (looked up): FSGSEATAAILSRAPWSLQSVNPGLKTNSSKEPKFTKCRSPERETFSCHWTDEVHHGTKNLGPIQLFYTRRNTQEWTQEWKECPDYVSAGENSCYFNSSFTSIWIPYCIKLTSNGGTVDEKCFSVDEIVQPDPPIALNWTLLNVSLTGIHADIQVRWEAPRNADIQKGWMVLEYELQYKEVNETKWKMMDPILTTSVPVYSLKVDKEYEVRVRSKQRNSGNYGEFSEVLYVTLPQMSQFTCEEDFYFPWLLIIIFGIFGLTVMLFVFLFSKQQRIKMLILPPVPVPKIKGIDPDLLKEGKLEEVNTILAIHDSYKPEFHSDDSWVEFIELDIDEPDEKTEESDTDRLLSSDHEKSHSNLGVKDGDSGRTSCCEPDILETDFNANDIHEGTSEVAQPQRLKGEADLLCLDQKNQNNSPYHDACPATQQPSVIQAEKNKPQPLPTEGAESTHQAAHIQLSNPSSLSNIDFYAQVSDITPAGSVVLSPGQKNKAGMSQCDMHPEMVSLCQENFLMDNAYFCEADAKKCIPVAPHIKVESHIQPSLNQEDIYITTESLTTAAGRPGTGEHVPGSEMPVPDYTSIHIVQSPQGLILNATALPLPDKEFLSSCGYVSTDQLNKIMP
Kind of experiment: cell-based or functional assay.

Experiment [2] concerns the target T2, recombinant hGH receptor Fc chimera (human, UniProt P10912 19-264).
T2 construct: also called hGH receptor chimera; not shown: Fc part of the chimera
T2 sequence (looked up): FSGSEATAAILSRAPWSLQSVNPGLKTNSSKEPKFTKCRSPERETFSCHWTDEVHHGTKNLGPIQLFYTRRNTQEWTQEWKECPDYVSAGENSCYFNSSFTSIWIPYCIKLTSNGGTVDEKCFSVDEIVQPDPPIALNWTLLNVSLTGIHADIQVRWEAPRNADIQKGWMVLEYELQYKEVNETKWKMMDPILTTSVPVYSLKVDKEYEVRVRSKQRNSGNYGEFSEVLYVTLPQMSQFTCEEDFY
Briefly: ELISA on plate-coated recombinant hGH receptor Fc chimera, detected with biotinylated anti-hGH polyclonal antibody. On the procedure: After additional washing step, 3,3',5,5'-tetramethylbenzidine (TMB) was added to each well to allow TMB reaction. Absorbance signals from the reaction were recorded at 450 nm to 650 nm.
For orientation: An ELISA detects its analyte on a solid surface through an enzyme-linked reagent.

For Pegvisomant (ligand), in experiment [1], the Relative inhibitory potency (relative to Pegvisomant) is 1. In experiment [2], the Relative binding potency (relative to Pegvisomant) is 1.

B1: hGH-A3 (ligand)
chain: FPTIPLSRLFDNAMLRAHRLNQLAFDTYQEFEEAYIPKEQKYSFLQNPQTSLCFSESIPTPSNREETQQKSNLELLRISLLLIQSWLEPVQFLRSVFANSLVYGASDSNVYDLLKDLEEKIQTLMGRLEDGSPRTGQIFKQTYSKFDTNSHNDDALLKNYGLLYCFRKDMDKVSTFLRIVQCRSVEGSCGFEDPQGDAANKTDTSHHDQDHPTFNKITPNLAEFAFSLYRQLAHQSNSTNIFFSPVSIATAFAMLSLGTKADTHDEILEGLNFNLTEIPEAQIHEGFQELLHTLNQPDSQLQLTTGNGLFLSEGLKLVDKFLEDVKKLYHSEAFTVNFGDTEEAKKQINDYVEKGTQGKIVDLVKELDRDTVFALVNYIFFKGKWERPFEVKDTEEEDFHVDQVTTVKVPMMKRLGMFNIQHCKKLSSWVLLMKYLGNATAIFFLPDEGKLQHLENELTHDIITKFLENEDRRSASLHLPKLSITGTYDLKSVLGQLGITKVFSNGADLSGVTEEAPLKLSKAVHKAVLTIDEKGTEAAGAMFLEAINMSIPPEVKFNKPFVFLMIDQNTKSPLFMGKVVNPTQK
notes: also called hGHRA-NexP
Consider B1, for which, in experiment [1], the Relative inhibitory potency was 0.957 relative to Pegvisomant. Further, the Relative binding potency in experiment [2] was 0.925 relative to Pegvisomant.

B2: hGH-A6 (ligand)
chain: B1 chain with F54P, R64K, F176Y
notes: also called hGHRA-NexP
For the molecule B2, in experiment [1], the Relative inhibitory potency was 1.42 relative to Pegvisomant. Also, the Relative binding potency in experiment [2] is 3.37 relative to Pegvisomant.

B3: hGH-A8 (ligand)
chain: B1 chain with H18D, R167N, K168A, D171S, K172R, I179T
notes: also called hGHRA-NexP
On to B3, for which the Relative inhibitory potency in experiment [1] is 1.42 relative to Pegvisomant. Besides, in experiment [2], the Relative binding potency was 4.64 relative to Pegvisomant.

B4: hGH-A7 (ligand)
chain: B1 chain with F54P, R64K, R167N, D171S, F176Y
notes: also called hGHRA-NexP
For the molecule B4, the Relative inhibitory potency in experiment [1] was 1.84 relative to Pegvisomant. The Relative binding potency in experiment [2] was 4.73 relative to Pegvisomant.

B5: hGH-A9 (ligand)
chain: B1 chain with H18D, Q46K, I179T
notes: also called hGHRA-NexP
Regarding B5, in experiment [1], the Relative inhibitory potency is 1.89 relative to Pegvisomant. For the same molecule, the Relative binding potency in experiment [2] is 4.58 relative to Pegvisomant.

B6: hGH-A4 (ligand)
chain: B1 chain with H18D, I179T
notes: also called hGHRA-NexP
Consider B6, for which, in experiment [1], the Relative inhibitory potency was 1.22 relative to Pegvisomant. Further, the Relative binding potency in experiment [2] was 2.31 relative to Pegvisomant.

B7: hGH-A10 (ligand)
chain: EDPQGDAANKTDTSHHDQDHPTFNKITPNLAEFAFSLYRQLAHQSNSTNIFFSPVSIATAFAMLSLGTKADTHDEILEGLNFNLTEIPEAQIHEGFQELLHTLNQPDSQLQLTTGNGLFLSEGLKLVDKFLEDVKKLYHSEAFTVNFGDTEEAKKQINDYVEKGTQGKIVDLVKELDRDTVFALVNYIFFKGKWERPFEVKDTEEEDFHVDQVTTVKVPMMKRLGMFNIQHCKKLSSWVLLMKYLGNATAIFFLPDEGKLQHLENELTHDIITKFLENEDRRSASLHLPKLSITGTYDLKSVLGQLGITKVFSNGADLSGVTEEAPLKLSKAVHKAVLTIDEKGTEAAGAMFLEAINMSIPPEVKFNKPFVFLMIDQNTKSPLFMGKVVNPTQKFPTIPLSRLFDNAMLRAHRLNQLAFDTYQEFEEAYIPKEQKYSFLQNPQTSLCPSESIPTPSNKEETQQKSNLELLRISLLLIQSWLEPVQFLRSVFANSLVYGASDSNVYDLLKDLEEKIQTLMGRLEDGSPRTGQIFKQTYSKFDTNSHNDDALLKNYGLLYCFNKDMSKVSTYLRIVQCRSVEGSCGF
notes: also called hGHRA-NexP
As to B7, the Relative inhibitory potency in experiment [1] is 17.7 relative to Pegvisomant. For the same molecule, the Relative binding potency in experiment [2] was 6.08 relative to Pegvisomant.

B8: hGH-A11 (ligand)
chain: B7 chain with H412D, Q440K, P448F, K458R, N561R, S565D, Y570F, I573T
notes: also called hGHRA-NexP
For B8, in experiment [1], the Relative inhibitory potency is 17.3 relative to Pegvisomant. Also, in experiment [2], the Relative binding potency is 9.95 relative to Pegvisomant.

Values taken from patent US11981719 (ALTEOGEN, dated 2024).
